Laboratory results reported in paper doi:10.1101/2023.12.18.572191, “Broadly neutralizing antibody induction by non-stabilized SARS-CoV-2 Spike mRNA vaccination in nonhuman primates” (bioRxiv, 2023).

Biological target: T1, SARS-CoV-2 S HexaPro Protein (SARS-CoV-2, Wuhan-Hu-1, stabilised)
T1 construct: also called Hexapro spike; SARS-CoV-2 spike ectodomain
Experiment: cryo-EM structure
Conditions: both partners purified

B1: DH1338 antigen-binding fragment (Fab) (Fab, V domains shown)
VH: QLQLQESGPGLVKPSETLSLTCAVSGGSISRKNWSWIRQPPGKGLGWIGRISGSGGSTDYNPSLKSRVTISTDTSKNQFSLKLSSVTAADTAVYYCARVAYYEDDYGYYYTEGAFDFWGQGLRVTVSS
VL: EIVMTQSPATLSLSPGERATLSCRTSQSVSSYVAWYQQKPEQTPRLLIYDASSRATGIPDRFSGGGSGTDFTLTISSLEPEDFAVYYCQQYSNWPWTFGQGTKVEIK
notes: also called DH1338 Fab
For B1, which “stoichiometry N” value is on record?
Its value is 3.
